In article PMC7160556:

Assays:
[1] = target: T1, endogenous 14-3-3ζ (YWHAZ) (human (endogenous in A549)), P63104; assay: native gel or EMSA; conditions: remark: other sources report otherwise
T1 chain: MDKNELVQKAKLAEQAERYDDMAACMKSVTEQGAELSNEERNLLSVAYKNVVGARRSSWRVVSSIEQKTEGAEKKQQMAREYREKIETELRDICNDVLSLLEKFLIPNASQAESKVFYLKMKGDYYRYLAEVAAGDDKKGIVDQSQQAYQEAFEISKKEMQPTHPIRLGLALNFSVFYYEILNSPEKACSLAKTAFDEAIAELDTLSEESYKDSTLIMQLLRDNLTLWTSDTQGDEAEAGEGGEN

[2] = target: T2, untagged 14-3-3ζ, overexpressed, P63104; assay: native gel or EMSA; conditions: remark: other sources report otherwise
T2 chain: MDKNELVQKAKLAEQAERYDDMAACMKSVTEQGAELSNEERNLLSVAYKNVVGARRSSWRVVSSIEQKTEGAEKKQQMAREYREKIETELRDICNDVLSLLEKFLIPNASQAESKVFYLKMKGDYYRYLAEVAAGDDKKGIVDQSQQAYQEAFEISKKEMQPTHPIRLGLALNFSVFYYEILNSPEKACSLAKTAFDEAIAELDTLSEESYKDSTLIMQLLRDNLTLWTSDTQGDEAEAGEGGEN

Binder | stoichiometry N [1] | stoichiometry N [2]
endogenous 14-3-3ζ (YWHAZ), P63104 1-245 (natural protein) MDKNELVQKAKLAEQAERYDDMAACMKSVTEQGAELSNEERNLLSVAYKNVVGARRSSWRVVSSIEQKTEGAEKKQQMAREYREKIETELRDICNDVLSLLEKFLIPNASQAESKVFYLKMKGDYYRYLAEVAAGDDKKGIVDQSQQAYQEAFEISKKEMQPTHPIRLGLALNFSVFYYEILNSPEKACSLAKTAFDEAIAELDTLSEESYKDSTLIMQLLRDNLTLWTSDTQGDEAEAGEGGEN | 2 | –
untagged 14-3-3ζ, overexpressed, P63104 1-245 (natural protein) MDKNELVQKAKLAEQAERYDDMAACMKSVTEQGAELSNEERNLLSVAYKNVVGARRSSWRVVSSIEQKTEGAEKKQQMAREYREKIETELRDICNDVLSLLEKFLIPNASQAESKVFYLKMKGDYYRYLAEVAAGDDKKGIVDQSQQAYQEAFEISKKEMQPTHPIRLGLALNFSVFYYEILNSPEKACSLAKTAFDEAIAELDTLSEESYKDSTLIMQLLRDNLTLWTSDTQGDEAEAGEGGEN | – | 2
